Results published in patent EP2975059A1.

Target: Human PCSK9 form a' (human)
Experiment: SPR ProteOn XPR36, antibody captured on anti-human IgG, PCSK9 variant as analyte, 25 C, 1:1 model

Kd: 0.185 nM | koff: 2.29e-05 s⁻¹ | kon: 124000 M⁻¹ s⁻¹
Substance: Evolocumab (antibody)
